biological target: GST-SBP-SLBP (stem-loop binding protein) (Homo sapiens, UniProt Q14493 1-270); test: targeted RNA Bind-n-Seq; RBNS binding buffer: 25 mM Tris pH 7.5, 150 mM KCl, 3 mM MgCl2, 0.1% Tween, 0.5 mg/mL BSA, 1 mM DTT; 27 nM protein, 750 pM RNA pool; temperature not stated; high values mean tight binding; details: protein: recombinant; tags: N-terminal GST and SBP (pGEX6P1-SBP)
In short: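 A designed RNA oligo pool, transcribed with T7, was present at 750 pM and incubated in RBNS binding buffer with 27 nM of GST-SBP-tagged protein that had been expressed in Rosetta(DE3) pLysS E. coli and purified with glutathione. After reverse transcription with a 10-nucleotide barcoded primer and PCR, the bound RNA was sequenced as 200-cycle paired-end reads on a MiSeq. Each sequence's binding signal is the DEseq binary-logarithm fold change in read counts, computed after joining reads with FLASH, aligning with HISAT2 and collapsing by barcode.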

Row | Binder | binding signal [log2 fold change]
1 | consensus (structured_RNA) RNA: GGUCACGUCUCAAUCAACUCCCAAAGGCCCUUCUCAGGGCCACCCAUCAACAGCUCGCAGUCAAG | 3.69 ± 0.158
2 | consensus (structured_RNA) RNA: GGUCACGUCUCAAUCAACUCCCAAAGGUUCUUCUAAGGGCCACCCAUCAACAGCUCGCAGUCAAG | 2.42 ± 0.134
3 | consensus (structured_RNA) RNA: GGUCACGUCUCAAUCAACUCCCAAAGGUUCUUUUCAGAGCCACCCAUCAACAGCUCGCAGUCAAG | 2.98 ± 0.121
4 | consensus (structured_RNA) RNA: GGUCACGUCUCAAUCAACUCCCAAAGGUUUUUUUUAAAACCACCCAUCAACAGCUCGCAGUCAAG | 2.51 ± 0.271
5 | consensus (structured_RNA) RNA: GGUCACGUCUCAAUCAACUCCCAAAGGUUCUUUUUAGAACCACCCAUCAACAGCUCGCAGUCAAG | 2.84 ± 0.113
6 | consensus (structured_RNA) RNA: GGUCACGUCUCAAUCAACUCCCAAAGGUUCUUCUAAGGACCACCCAUCAACAGCUCGCAGUCAAG | 2.79 ± 0.124
7 | consensus (structured_RNA) RNA: GGUCACGUCUCAAUCAACUCCCAAAGGUUCUUUUAAGGACCACCCAUCAACAGCUCGCAGUCAAG | 2.99 ± 0.127
8 | consensus (structured_RNA) RNA: GGUCACGUCUCAAUCAACUCCCAAAGGUUCUUCUCAGGACCACCCAUCAACAGCUCGCAGUCAAG | 2.79 ± 0.125
9 | consensus (structured_RNA) RNA: GGUCACGUCUCAAUCAACUCCCAAAGGCUCUUCUGAGAGCCACCCAUCAACAGCUCGCAGUCAAG | 2.5 ± 0.154
10 | consensus (structured_RNA) RNA: GGUCACGUCUCAAUCAACUCCCAAAGGUUCUUUUUAGGACCACCCAUCAACAGCUCGCAGUCAAG | 2.58 ± 0.123
11 | consensus (structured_RNA) RNA: GGUCACGUCUCAAUCAACUCCCAAAGGUCCUUCUUAGGGCCACCCAUCAACAGCUCGCAGUCAAG | 2.76 ± 0.147
12 | consensus (structured_RNA) RNA: GGUCACGUCUCAAUCAACUCCCAAAGGUUCUUUUAAGAGCCACCCAUCAACAGCUCGCAGUCAAG | 2.97 ± 0.121
13 | consensus (structured_RNA) RNA: GGUCACGUCUCAAUCAACUCCCAAAGGUUUUUCUUAAAACCACCCAUCAACAGCUCGCAGUCAAG | 2.59 ± 0.138
14 | consensus (structured_RNA) RNA: GGUCACGUCUCAAUCAACUCCCAAAGGUCUUUCUGAAGACCACCCAUCAACAGCUCGCAGUCAAG | 2.75 ± 0.139
15 | consensus (structured_RNA) RNA: GGUCACGUCUCAAUCAACUCCCAAAGGCUUUUUUUAAGGCCACCCAUCAACAGCUCGCAGUCAAG | 2.7 ± 0.125
16 | consensus (structured_RNA) RNA: GGUCACGUCUCAAUCAACUCCCAAAGGCUCUUUUUAGGGCCACCCAUCAACAGCUCGCAGUCAAG | 2.74 ± 0.145
17 | consensus (structured_RNA) RNA: GGUCACGUCUCAAUCAACUCCCAAAGGUCCUUUUGAGGGCCACCCAUCAACAGCUCGCAGUCAAG | 2.63 ± 0.152
18 | consensus (structured_RNA) RNA: GGUCACGUCUCAAUCAACUCCCAAAGGCUUUUUUGAAAGCCACCCAUCAACAGCUCGCAGUCAAG | 2.83 ± 0.141
19 | consensus (structured_RNA) RNA: GGUCACGUCUCAAUCAACUCCCAAAGGUUCUUCUAAGAGCCACCCAUCAACAGCUCGCAGUCAAG | 2.77 ± 0.139
20 | consensus (structured_RNA) RNA: GGUCACGUCUCAAUCAACUCCCAAAGGUUCUUUUAAGGGCCACCCAUCAACAGCUCGCAGUCAAG | 2.44 ± 0.142
21 | consensus (structured_RNA) RNA: GGUCACGUCUCAAUCAACUCCCAAAGGCUCUUCUUAGGGCCACCCAUCAACAGCUCGCAGUCAAG | 2.44 ± 0.146
22 | consensus (structured_RNA) RNA: GGUCACGUCUCAAUCAACUCCCAAAGGUUCUUCUCAGAGCCACCCAUCAACAGCUCGCAGUCAAG | 2.76 ± 0.132

Row | Binder | binding signal [log2 fold change]
23 | consensus (structured_RNA) RNA: GGUCACGUCUCAAUCAACUCCCAAAGGCUCUUUUGAGAGCCACCCAUCAACAGCUCGCAGUCAAG | 2.84 ± 0.154
24 | consensus (structured_RNA) RNA: GGUCACGUCUCAAUCAACUCCCAAAGGUCUUUCUCAAGGCCACCCAUCAACAGCUCGCAGUCAAG | 2.87 ± 0.126
25 | consensus (structured_RNA) RNA: GGUCACGUCUCAAUCAACUCCCAAAGGUUCUUUUUAGAGCCACCCAUCAACAGCUCGCAGUCAAG | 2.54 ± 0.128
26 | consensus (structured_RNA) RNA: GGUCACGUCUCAAUCAACUCCCAAAGGUUUUUUUCAAAGCCACCCAUCAACAGCUCGCAGUCAAG | 2.7 ± 0.146
27 | consensus (structured_RNA) RNA: GGUCACGUCUCAAUCAACUCCCAAAGGUCUUUUUCAAGACCACCCAUCAACAGCUCGCAGUCAAG | 3.61 ± 0.112
28 | consensus (structured_RNA) RNA: GGUCACGUCUCAAUCAACUCCCAAAGGCCUUUUUAAAGGCCACCCAUCAACAGCUCGCAGUCAAG | 3.68 ± 0.122
29 | consensus (structured_RNA) RNA: GGUCACGUCUCAAUCAACUCCCAAAGGUUUUUUUAAAAACCACCCAUCAACAGCUCGCAGUCAAG | 2.88 ± 0.264
30 | consensus (structured_RNA) RNA: GGUCACGUCUCAAUCAACUCCCAAAGGCCCUUCUAAGGGCCACCCAUCAACAGCUCGCAGUCAAG | 3.65 ± 0.165
31 | consensus (structured_RNA) RNA: GGUCACGUCUCAAUCAACUCCCAAAGGUUCUUUUCAGGGCCACCCAUCAACAGCUCGCAGUCAAG | 2.49 ± 0.153
32 | consensus (structured_RNA) RNA: GGUCACGUCUCAAUCAACUCCCAAAGGUUCUUCUUAGAACCACCCAUCAACAGCUCGCAGUCAAG | 2.63 ± 0.139
33 | consensus (structured_RNA) RNA: GGUCACGUCUCAAUCAACUCCCAAAGGUUUUUUUAAAAGCCACCCAUCAACAGCUCGCAGUCAAG | 2.53 ± 0.247
34 | consensus (structured_RNA) RNA: GGUCACGUCUCAAUCAACUCCCAAAGGUCCUUCUGAGGACCACCCAUCAACAGCUCGCAGUCAAG | 2.83 ± 0.137
35 | consensus (structured_RNA) RNA: GGUCACGUCUCAAUCAACUCCCAAAGGUCUUUCUUAAGGCCACCCAUCAACAGCUCGCAGUCAAG | 2.73 ± 0.134
36 | consensus (structured_RNA) RNA: GGUCACGUCUCAAUCAACUCCCAAAGGCUUUUCUCAAGGCCACCCAUCAACAGCUCGCAGUCAAG | 2.96 ± 0.136
37 | consensus (structured_RNA) RNA: GGUCACGUCUCAAUCAACUCCCAAAGGUUUUUCUAAAAGCCACCCAUCAACAGCUCGCAGUCAAG | 2.61 ± 0.133
38 | consensus (structured_RNA) RNA: GGUCACGUCUCAAUCAACUCCCAAAGGUCUUUUUUAAGGCCACCCAUCAACAGCUCGCAGUCAAG | 2.89 ± 0.126
39 | consensus (structured_RNA) RNA: GGUCACGUCUCAAUCAACUCCCAAAGGUUUUUCUCAAAACCACCCAUCAACAGCUCGCAGUCAAG | 2.81 ± 0.12
40 | consensus (structured_RNA) RNA: GGUCACGUCUCAAUCAACUCCCAAAGGCUUUUCUUAAGGCCACCCAUCAACAGCUCGCAGUCAAG | 2.45 ± 0.137
41 | consensus (structured_RNA) RNA: GGUCACGUCUCAAUCAACUCCCAAAGGCUUUUUUUAAAGCCACCCAUCAACAGCUCGCAGUCAAG | 2.93 ± 0.199
42 | consensus (structured_RNA) RNA: GGUCACGUCUCAAUCAACUCCCAAAGGCUUUUCUAAAGGCCACCCAUCAACAGCUCGCAGUCAAG | 2.99 ± 0.126
43 | consensus (structured_RNA) RNA: GGUCACGUCUCAAUCAACUCCCAAAGGUCCUUUUUAGGGCCACCCAUCAACAGCUCGCAGUCAAG | 2.9 ± 0.135
44 | consensus (structured_RNA) RNA: GGUCACGUCUCAAUCAACUCCCAAAGGCUUUUCUGAAAGCCACCCAUCAACAGCUCGCAGUCAAG | 2.53 ± 0.134

From article PMC5892938, “SARNAclust: Semi-automatic detection of RNA protein binding motifs from immunoprecipitation data”
